{"source": "patent US8796201B2", "about": "(The Board of Trustees of the Leland Stanford Junior …, priority 2002, dated 2014)", "molecules": {"B1": {"name": "MX PEP: novel recombinant prolyl endopeptidase from Myxococcus xanthus (Genbank AF127082, SEQ ID NO:47) (protein, listed as Myxococcus xanthus)", "chain": "MSYPATRAEQVVDTLHGVQVADPYRWLEDEKAPEVQTWMTAQNAHAREALAKFPGREALAARFKELFYTDSVSTPSRRNGRFFYVRTHKDKEKAILYWRQGESGQEKVLLDPNGWSKDGTVSLGTWAVSWDGKKVAFAQKPNAADEAVLHVIDVDSGEWSKVDVIEGGKYATPKWTPDSKGFYYEWLPTDPSIKVDERPGYTTIRYHTLGTEPSKDTVVHERTGDPTTFLQSDLSRDGKYLFVYILRGWSENDVYWKRPGEKDFRLLVKGVGAKYEVHAWKDRFYVLTDEGAPRQRVFEVDPAKPARASWKEIVPEDSSASLLSVSIVGGHLSLEYLKDATSEVRVATLKGKPVRTVQLPGVGAASNLMGLEDLDDAYYVFTSFTTPRQIYKTSVSTGKSELWAKVDVPMNPEQYQVEQVFYASKDGTKVPMFVVHRKDLKRDGNAPTLLYGYGGFNVNMEANFRSSILPWLDAGGVYAVANLRGGGEYGKAWHDAGRLDKKQNVFDDFHAAAEYLVQQKYTQPKRLAIYGGSNGGLLVGAAMTQRPELYGAVVCAVPLLDMVRYHLFGSGRTWIPEYGTAEKPEDFKTLHAYSPYHHVRPDVRYPALLMMAADHDDRVDPMHARKFVAAVQNSPGNPATALLRIEANAGHGGADQVAKAIESSVDLYSFLFQVLDVQGAQGGVAAQGR"}}, "assay": "Retention of PEP activity on lyophilization, enteric coating, storage and tabletting", "format": "physicochemical", "protocol": "Lyophilization of M. xanthus PEP was performed as follows. The PEP was purified as described in Example 3, and concentrated to an initial concentration of 7.7 mg/ml by Tangential-Flow Filtration (TFF) using a 10K MWCO Pellicon difiltration membrane (Millipore, PLCGC10, 50 cm, Cat. No. PXC010C50). TFF (using a LabScale TFF from Millipore, Cat. No. 29751) was performed for approximately 12 hours (pressure of 50 psi (retentate)/30 psi (permeant)), with periodic addition to the reservoir of 50 mM Sodium Phosphate, 3% Sucrose pH 7.5. Thereafter, PEG-4000 was added with a target concentration of 1%. The final protein concentration was 70-100 mg/ml. This material was centrifuged, then lyophilized. The lyophilization was performed in square petri dishes (Falcon Cat. No. 35-1112) in a DuraStop lyophilizer using parameters outlined in the Table below. Typically, 0.7-0.85 mg PEP was present per mg of lyophilized material.\nThe enteric coating was mixed vigorously in a beaker on a stir plate. The solution was then decanted into a spray bottle. Rat capsules were carefully spread on paper towels in groups of 20 and the enteric coating solution sprayed onto the capsules. Warm air was used to partially dry the capsules before moving them to a dry paper towel where they air-dried for 30 minutes before the next coat was applied. A total of 3 coats were applied in order to cover all sides of the capsules. […]", "data": [{"molecule": "B1", "values": [{"measurement": "specific activity upon lyophilization", "result": "No loss of specific activity"}]}]}
